In publication PMC8685691, “A serum-stable RNA aptamer specific for SARS-CoV-2 neutralizes viral entry”:

What was measured:
[1] = molecular target: T1, SARS-CoV-2 spike RBD, WT, His-tagged (SARS-CoV-2 (WT), UniProt P0DTC2 319-532); experiment: BLI competition
[2] = molecular target: T1, SARS-CoV-2 spike RBD, WT, His-tagged; experiment: FIDA
[3] = molecular target: T1, SARS-CoV-2 spike RBD, WT, His-tagged; experiment: BLI
[4] = molecular target: SARS-CoV-2 spike RBD, C-tagged (SARS-CoV-2 (WT), UniProt P0DTC2 319-532); experiment: BLI competition

| Binder | IC50 [1] [nM] | binding result [4] | also measured |
| --- | --- | --- | --- |
| RBD-PB6 (structured_RNA, 2'-fluoro pyrimidines) RNA: GGGGCCACCAACGACAUUUGUAAUUCCUGGACCGAUACUUCCGUCAGGACAGAGGUUGAUAUAAAUAGUGCCCAUGGAUCC | ~250 | – | Kd [2]: 129 nM; Kd [3]: ~18 nM |
| GGUUUGUAAUUCCUGGACCGAUACUUCCGUCAGGACAGACCA (structured_RNA, 2'-fluoro pyrimidines) [RBD-PB6-Tb] | – | no binding | – |
| GGUCCUGGACCGAUACUUCCGUCAGGACCA (structured_RNA, 2'-fluoro pyrimidines) [RBD-PB6-Tc] | – | no binding | – |
| GGCGACAUUUGUAAUUCCUGGAUCAGGACAGAGGUUGCCA (structured_RNA, 2'-fluoro pyrimidines) [RBD-PB6-Td] | – | no binding | – |
| RBD-PB6-Tinv (structured_RNA, 2'-fluoro pyrimidines) RNA: GGCGACAUUUGUAAUAGGACGACCGAUACUUCCGUGUCCUCAGAGGUUGCCA | – | no binding | – |
| RBD-PB6-Ta (structured_RNA, 2'-fluoro pyrimidines) RNA: GGCGACAUUUGUAAUUCCUGGACCGAUACUUCCGUCAGGACAGAGGUUGCCA | 200 | – | – |
